Substrate: O=C(O)CC(=O)C(=O)O
Experiment: purified protein, by the assay type
Details: other: recombinant enzyme from Escherichia coli JM109 (pMDH1) (Example 6, Table 4)

B1: heat-resistant malate dehydrogenase (MAD) of Bacillus stearothermophilus ATCC 12016 gene, produced by Escherichia coli JM109 (pMDH1), amino acid sequence SEQ … (protein)
chain: MAMKRKKISVIGAGFTGATTAFLLAQKELGDVVLVDIPQLENPTKGKALDMLEASPVLGFDANIIGTSDYADTADSDIVVITAGIARKPGMSRDDLVTTNQKIMKQVTKEVVKYSPNCYIIVLTNPVDAMTYTVFKESGFPKNRVIGQSGVLDTARFRTFVAEELNISVKDVTGFVLGGHGDDMVPLVRYSYAGGIPLEKLIPKDRLDAIVERTRKGGGEIVNLLGNGSAYYAPAASLVEMVEAILKDQRRILPAIAYLEGEYGYEGIYLGVPTILGGNGIEKVIELELTEEEKARSPNPSNPLKMSCACWNSGEAKIRALPGFLSHSQ
Km: 4.3 µM
